Data from patent US20190367612A1 (Daiichi Sankyo, published 2019).
Bridge positions count the residues as written; N and C are the ends. Ends that are not written are not given here. * marks the point of attachment. Biotin = O=C1N[C@H]2[C@H](CS[C@H]2CCCCC(=O)*)N1

B3: human GPRC5D amino-terminal peptide MYKDCIESTGDYFLLCDAEGPWGIILE-K(Biotin)-NH2, having an intramolecular disulfide bond (peptide)
peptide: MYKDCIESTGDYFLLCDAEGPWGIILEK(Biotin)-NH2
modifications: disulfide 5-16 (inferred)
notes: Peptide Institute synthetic peptide; also called amino-terminal peptide of biotinylated human GPRC5D (disulfide bond present)

Tests used:
[1] = biological target: T1, rat anti-GPRC5D antibody 7B4; test: flow cytometry competition on KMS-34 cells: the peptide without the intramolecular disulfide bond is added together with a fixed amount of 7B4; readout: binding of 7B4 to human GPRC5D on the cells
T1 construct: Rat IgG2b, kappa chain
Protocol: (§1) Human multiple myeloma cell line KMS-34 cells expressing GPRC5D were adjusted to a concentration of 2×10⁶ cells/mL with PBS containing 5% FBS, inoculated in an amount of 100 μL/well to a 96-well U-bottomed microplate, and centrifuged to remove a supernatant. Each rat anti-GPRC5D antibody (2A4, 2B1, and 7B4) adjusted to 7.5 μg/mL in Example 1)-7, or Rat IgG2b isotype control antibody (Medical & Biological Laboratories Co., Ltd. (MBL)) was added thereto in an amount of 100 μL/well. The two types of peptides used in Example 2)-2-1 were each adjusted to 17 ng/mL to 34 μg/mL with PBS and added in an amount of 100 μL/well to the wells containing the antibody dilution, and the plate was left standing at 4° C. for 1 hour. The cells were washed twice with PBS containing 5% FBS. Then, PE Goat Anti-Rat Ab (Becton, Dickinson and Company) diluted 100-fold with PBS containing 5% FBS was added thereto in an amount of 100 μL/well, and the plate was left standing at 4° C. for 1 hour. The cells were washed twice with PBS containing 5% FBS and then resuspended in PBS containing 5% FBS, followed by detection using a flow cytometer (FACSCanto™ II; Becton, Dickinson and Company). The data was analyzed using Flowjo (Tree Star, Inc.). The PE fluorescence intensity of the cell fraction was plotted to a histogram, and the mean fluorescence intensity (MFI) was calculated. […]

[2] = biological target: T2, rat anti-GPRC5D antibody 2B1; test: flow cytometry competition on KMS-34 cells: the peptide without the intramolecular disulfide bond is added together with a fixed amount of 2B1; blocked: binding of 2B1 to human GPRC5D on the cells
T2 construct: Rat IgG2b, kappa chain
Protocol: as §1

[3] = biological target: T3, rat anti-GPRC5D antibody 2A4; test: flow cytometry competition on KMS-34 cells: the peptide without the intramolecular disulfide bond is added together with a fixed amount of 2A4; readout: binding of 2A4 to human GPRC5D on the cells
T3 construct: Rat IgG2b, kappa chain
Protocol: as §1

[4] = biological target: B3; test: SPR (Biacore T200), kinetic analysis: biotinylated amino-terminal peptide of human GPRC5D on Sensor Chip CAP, scFv as analyte
Protocol: The binding activity of the anti-GPRC5D antibodies against the amino-terminal peptide of human GPRC5D was tested by SPR using Biacore T200. The amino-terminal peptide of biotinylated human GPRC5D diluted to 2 nM with HBS-EP+ (manufactured by GE Healthcare Bio-Sciences Corp.) was immobilized on Sensor Chip CAP (manufactured by GE Healthcare Bio-Sciences Corp.) by contact at a rate of 10 μL/min for 180 seconds. Then, Kd was calculated by kinetic analysis using a plurality of concentrations of each scFv diluted with HBS-EP+ as analytes.

[5] = biological target: B3; test: ELISA, chemiluminescence: biotinylated amino-terminal peptide of human GPRC5D on NeutrAvidin, scFv detected with HRP anti-FLAG antibody
Protocol: (§2) NeutrAvidin diluted to 1 μg/mL with PBS was added in an amount of 50 μL/well to 96-well Maxi-sorp plate (Black, Nunc/Thermo Fisher Scientific Inc.), and the plate was left standing overnight at 4° C. for immobilization. After washing three times with an ELISA buffer, the amino-terminal peptide of the biotinylated human or cynomolgus monkey GPRC5D (used in Example 10)-1) diluted to 1 μg/mL with PBS was added thereto, and the plate was shaken at room temperature for 1 hour. After washing three times with an ELISA buffer, the plate was blocked with Blocker Casein and washed three times with an ELISA buffer. Then, the C2037, C3048, C3015, or C3022 scFv was added to the plate and reacted at room temperature for 2 hours. After washing three times with an ELISA buffer, a horseradish peroxidase (HRP)-labeled anti-FLAG antibody diluted 5000-fold with an ELISA buffer was added thereto in an amount of 50 μL/well and reacted at room temperature for 1 hour. After washing five times with an ELISA buffer, SuperSignal Pico ELISA Chemiluminescent substrate was added. After 10 minutes, the chemiluminescence was measured using a plate reader.

[6] = biological target: T4, human GPRC5D (human, UniProt Q9NZD1 1-345); test: flow cytometry on KMS-34 cells (endogenous human GPRC5D), anti-FLAG antibody and Alexa 488 anti-mouse IgG detection
T4 construct: whole, on cells; also called hGPRC5D; G-protein coupled receptor family C group 5 member D
Protocol: The KMS-34 cells were recovered by centrifugation, washed twice with a FACS buffer (PBS containing 0.5% BSA and 2 mM EDTA, pH 7.4), and then suspended in the same solution as above. The C2037, C3048, C3015 or C3022 scFv was added to the obtained cell suspension, and the mixture was left standing at 4° C. for 2 hours. After washing twice with a FACS buffer, the cells were suspended by the addition of an anti-FLAG antibody (Sigma-Aldrich Corp.), and the mixture was further left standing at 4° C. for 1 hour. After washing twice with a FACS buffer, the cells were suspended by the addition of Alexa 488-labeled anti-mouse IgG antibody (Jackson ImmunoResearch Laboratories, Inc.), and the mixture was further left standing at 4° C. for 1 hour. After washing twice with a FACS buffer, the cells were fixed in 1% PFA (prepared from a 32% paraformaldehyde solution (Electron Microscopy Sciences)), followed by detection using a flow cytometer (FACSCanto™ II; Becton, Dickinson and Company). The data was analyzed using Flowjo (Tree Star, Inc.).

[7] = biological target: T5, amino-terminal peptide of cynomolgus monkey GPRC5D …(Biotin)-NH2 (cynomolgus monkey, C-terminal lysine carrying biotin, C-terminal amide); test: ELISA, chemiluminescence: biotinylated amino-terminal peptide of cynomolgus monkey GPRC5D on NeutrAvidin, scFv detected with HRP anti-FLAG antibody
T5 construct: also called amino-terminal peptide of biotinylated cynomolgus monkey GPRC5D
T5 peptide: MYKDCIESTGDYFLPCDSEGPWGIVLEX
Protocol: as §2

[8] = biological target: T1, rat anti-GPRC5D antibody 7B4; test: flow cytometry competition on KMS-34 cells: the peptide with the intramolecular disulfide bond is added together with a fixed amount of 7B4; readout: binding of 7B4 to human GPRC5D on the cells
Protocol: as §1

[9] = biological target: T3, rat anti-GPRC5D antibody 2A4; test: flow cytometry competition on KMS-34 cells: the peptide with the intramolecular disulfide bond is added together with a fixed amount of 2A4; readout: binding of 2A4 to human GPRC5D on the cells
Protocol: as §1

[10] = biological target: T2, rat anti-GPRC5D antibody 2B1; test: flow cytometry competition on KMS-34 cells: the peptide with the intramolecular disulfide bond is added together with a fixed amount of 2B1; blocked: binding of 2B1 to human GPRC5D on the cells
Protocol: as §1

[11] = biological target: T4, human GPRC5D; test: flow cytometry on KHM-1B cells (human GPRC5D), culture supernatant, PE anti-human IgG Fc, rMFI over human IgG isotype control
Protocol: Human multiple myeloma cell line KHM-1B cells expressing GPRC5D were adjusted to a concentration of 2×10⁶ cells/mL with PBS containing 5% FBS, inoculated in an amount of 100 μL/well to a 96-well U-bottomed microplate, and centrifuged to remove a supernatant. The culture supernatant of each humanized anti-GPRC5D antibody obtained in Example 8)-3-1 or Human IgG isotype control antibody (Calbiochem/Merck Millipore Corp.) adjusted to 14 ng/mL to 30 μg/mL was added thereto in an amount of 100 μL/well, and the plate was left standing at 4° C. for 1 hour. The cells were washed twice with PBS containing 5% FBS. Then, R-Phycoerythrin AffiniPure F(ab′)2 Fragment Goat Anti-Human IgG, Fcγ Fragment Specific (Jackson ImmunoResearch Laboratories, Inc.) diluted 100-fold with PBS containing 5% FBS was added thereto in an amount of 100 μL/well, and the plate was left standing at 4° C. for 1 hour. The cells were washed twice with PBS containing 5% FBS and then resuspended in PBS containing 5% FBS, followed by detection using a flow cytometer (FACSCanto™ II; Becton, Dickinson and Company). The data was analyzed using Flowjo (Tree Star, Inc.). The PE fluorescence intensity of the cell fraction was plotted to a histogram, and the mean fluorescence intensity (MFI) was calculated. The MFI value of the control antibody was subtracted from the MFI value of the GPRC5D antibody to calculate a relative value of MFI (rMFI).

[12] = biological target: T6, cynomolgus monkey GPRC5D (cynomolgus monkey); test: flow cytometry on KMS-11_cGPRC5D cells (cynomolgus monkey GPRC5D), PE anti-human IgG Fc detection, rMFI = MFI minus isotype control [label at the foot of D00092]
T6 construct: whole, on cells; Stably expressed on KMS-11 cells (KMS-11_cGPRC5D); also called cGPRC5D

[13] = biological target: T4, human GPRC5D; test: flow cytometry on KHM-1B cells (human GPRC5D), PE anti-human IgG Fc, rMFI over human IgG isotype control
[14] = biological target: T7, mouse GPRC5D (mouse, UniProt Q9JIL6 1-344); test: flow cytometry, in the same way as in Example 5)-2
T7 construct: whole, on cells
T7 sequence (looked up): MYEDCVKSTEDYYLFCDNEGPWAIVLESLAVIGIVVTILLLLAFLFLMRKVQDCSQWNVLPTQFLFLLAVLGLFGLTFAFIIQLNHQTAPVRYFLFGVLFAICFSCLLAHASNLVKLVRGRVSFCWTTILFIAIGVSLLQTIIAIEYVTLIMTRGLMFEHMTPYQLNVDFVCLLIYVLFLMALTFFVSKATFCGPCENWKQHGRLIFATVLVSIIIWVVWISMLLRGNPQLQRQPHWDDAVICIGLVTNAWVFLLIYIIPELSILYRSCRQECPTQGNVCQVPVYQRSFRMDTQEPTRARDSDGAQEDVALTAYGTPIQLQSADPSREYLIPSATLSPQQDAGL

T1 sequence (VH, as listed by the source, chain 1 of 2): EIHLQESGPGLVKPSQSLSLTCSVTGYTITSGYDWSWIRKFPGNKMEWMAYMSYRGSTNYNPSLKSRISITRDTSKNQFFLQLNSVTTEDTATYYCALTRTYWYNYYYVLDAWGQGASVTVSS
T1 sequence (VL, as listed by the source, chain 2 of 2): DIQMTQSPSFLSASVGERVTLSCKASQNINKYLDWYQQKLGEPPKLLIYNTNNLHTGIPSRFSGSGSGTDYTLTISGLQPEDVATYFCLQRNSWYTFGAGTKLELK
T3 sequence (VH, as listed by the source, chain 1 of 2): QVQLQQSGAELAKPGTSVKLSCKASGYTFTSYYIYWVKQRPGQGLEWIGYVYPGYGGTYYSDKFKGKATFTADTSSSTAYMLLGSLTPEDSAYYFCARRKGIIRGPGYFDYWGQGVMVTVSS
T3 sequence (VL, as listed by the source, chain 2 of 2): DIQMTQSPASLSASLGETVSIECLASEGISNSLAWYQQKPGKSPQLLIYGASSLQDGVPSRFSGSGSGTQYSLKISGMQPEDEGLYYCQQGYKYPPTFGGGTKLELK

B1: human GPRC5D amino-terminal peptide …(Biotin)-NH2, lacking an intramolecular disulfide bond (peptide)
peptide: MYKDCIESTGDYFLLCDAEGPWGIILE(Biotin)-NH2
modifications: cysteine pairing not given here
notes: Sigma-Aldrich synthetic peptide; also called amino-terminal peptide of human GPRC5D (disulfide bond absent)
For B1, the binding result [1] was “no binding (tested: 5000 nM)”, the “IC50 (read off the curve)” value [2] was roughly 50 nM and the binding result [3] was “no binding (tested: 5000 nM)”.

B2: human antibody C3048 scFv (scFv)
scFv: QVQLVQSGAEVKKPGSSVKVSCKASGGTFSRYAISWVRQAPGQGLEWMGGIIPIFGTANYAQKFQGRVTITADQSTRTAYMDLGRLRSEDTAVYYCALEGFRDSLKRNPFDIWGQGTMVTVSSGGGGSGGGGSGGGGSQSVVTQPPSVSAAPGQKVTISCSGGTTNIGSNYVSWYQQLPGTAPKFLMYENNKRPSGIPDRFSGSKSGTSATLAITGLQTGDEATYYCSTWDSSLNTGLFGGGTKLTVL
notes: also called C3048 antibody scFv; not shown: FLAG and His tags at the carboxyl terminus
B2 was tested, and the Kd [4] was 0.36 nM, the “EC50 (read off the curve)” value [5] was roughly 3 nM and the “EC50 (read off the curve)” value [6] was roughly 10 nM. B2: binds [7].

With B3 the binding result [8] was “no binding (tested: 5000 nM)”, the binding result [9] was “no binding (tested: 5000 nM)” and the “IC50 (read off the curve)” value [10] was roughly 50 nM.

B4: humanized anti-GPRC5D antibody h2B1_H1/L2 (antibody, human IgG1, kappa, V domains shown)
VH: QVQLVESGGGLVKPSQTLSLTCTFSGFSLNTYDMGVGWIRQPPGKGLEWIGNIWWDDDKYYNPSLKSRVTISVDTSKNQASLKLSSVTAADTAVYYCARIETVRVSRKGFAHWGQGTLVTVSS
VL: DTVMTQSPDSLAVSLGERATINCKASQSVGINVDWYQQKPGQPPKLLIYGASNRHTGVPDRFSGSGFGTDFTLTISSLQAEDVAVYYCLQHGSIPPTFGQGTKVEIKR
notes: Human IgG1 / kappa
B4 was tested, and the binding result [11] was “binds” and the “EC50 (read off the curve)” value [12] was roughly 4 nM.

B5: human chimeric 2B1 (antibody, human IgG1, V domains shown)
VH: QVTLKESGPGILQPSQTLSLTCTFSGFSLNTYDMGVGWIRQPSGKGLEWLANIWWDDDKYYNPSLRNRLTISKDTSNNQAFLKITNVDTADTATYYCARIETVRVSRKGFAHWGQGTLVTVSS
VL: ETVMTQSPTSMSTSIGERVTLNCKASQSVGINVDWYQQTPGQSPKLLIYGASNRHTGVPDRFTGSGFGRDFTLTISNVEAEDLAVYYCLQHGSIPPTFGGGTKLELKR
notes: Human IgG1 / kappa constant regions
For B5, the “EC50 (read off the curve)” value [13] was roughly 10 nM and the binding result [14] was “no binding”.
